Assay: label from the status in PepcDB records

| Sequence | protein production |
| --- | --- |
| MMKNKVNIDTIIYLVLIITSLIFIYAGSFLFEEGSFIGNRGNNRTVDADTATDRNKPFPVVHKAVSTEINGIKQKINILEIDLSSGGVKIKPALAFDTIYGFQSLKDIAINNNAYAAVNAGFFYSYGEPSGMVVIDGKVYTKSTGKYPVFVVQGKNAFLSEIKSNIWILHGNRRIAADDINREGKPGETVVYTPVFGPTNRADKLHTSYIVENNRVARKFRGDTECKIPSDGMVITFYEPISSEEKFEVGDWIGIDIDPDFGPGFQAYECGSWLVRDGQVVAVDRDDWVGLLTNRDPRTAIGVKHDGKVVLVTVDGRQPGYSVGLSSRELAGYLLTLGIKDAAMLDGGASTQMIVQNKTVNRLPARERMLGGGIVVVVDEDL | failed |
| LFSSRDILEVLQDIHMETGETVAIATKNDIYLQYIQIIESVHALRFHVDENAIRPLTMSSNGWMLMSTMNDKAIDNTVRRANTITQKDGIRFEVDDMMARIRQVREQGYASAEHIPFVGGGTICVLLPMTIQGQPVTMGLGGALDRIKQNYDRYLELLLNGVQQLKKSDSFHQPI | not failed |
| MGRIAWVVRADRPCAATNTHINEPPRRALTSGPGVFIRRTVAAAATRRRYPSAMAIHADTHDDLRLFQTGEHACGYWSDRRARDLVLDPHDPRLGAIYPQALAWGFRRSGDLVYRPHCERCRACVPVRIAVDAFHPDRSQRRCLTRNQDLVVRVVAAERTDEQLALYRQYLKYRHPGGGMDEHGATEFDQFLIGGWSHGRFLEIREPAIAHLPGRLLAVAVTDVTEHALSAIYTFYAPEAAARSLGTFAILQQIQWAQRERRAHVYLGYWIEGHAKMNYKRRFSALEAYDGRHWCDLPAHPSGT | failed |
| MADQGLEESNPMDLSKHPSGIVPTPHSQVIYKMPPRIAAIRLVSSHREVYEPCDDSFALVDALLADRTNLIEHNPKICMEIGCGSGYVITSLILLLQNEVPGVHYLAIDTNPIATRVTKETLEAHGVNADVICADLATGLEKRLAGSVDVIVVNPPYVPTPEYEVGMEGIASAWAGGENGRTVIDKILPVVDLLLSEKGWFYLVTLTSNFPAEICLMMRKKGYASRIVVQRSTEEENLVILKFWRDKDEESQDKETSSSSFVSQFSKSLSSLMEKQWR | failed |
| MASSVLEMIKEEVTCPICLELLKEPVSADCNHSFCRACITLNYESNRNTDGKGNCPVCRVPYPFGNLKPNLHVANIVERLKGFKSIPEEEQKVNICAQHGEKLRLFCRKDMMVICWLCERSQEHRGHQTALIEEVDQEYKEKLQGALRKLMKKAKICDEWQDDLQLQRVDWENQIQINVENVQRQFKGLRDLLDSKENEELQKLKKEKKEVMEKLEESENELEDQTELVRDLISDVEHHLQLSTLEMLQGANCVLRRSQSLSLQQPQSVPQKRKRTFQAPDLKGMLQVYQGLMDIQQYWVHMTLHARNNAVIAINKEKRQIQYRSYNTVPVSEIYHLGVLGYPALSSGKHYWEVDISRSDAWLLGLNDGKCAQPQLHSKEEMGIKKNLHSQIKQNVLFQPKCGYWVIGMKNPSVYNAFDECSITHNSSILVISLPDCPSRVGVFLDRKAGTLSFYDVSNCGALIYRFYDPAFPVEVYPYFNPMKCSEPMTICGPPS | not failed |
| MGHHHHHHSHMKLVTRSCDPGEKLDSKIGVLIGKGLHEFDSLKDPEVNEFRRKMRKFSEEKILSLVGLSWMDWLKQTYPPEHEPSIPENLEDKLYGGKLIVAVHFENCQDVFSFQVSPNMNPIKVNELAIQKRLTIHGKEDEVSPYDYVLQVSGRVEYVFGDHPLIQFQYIRNCVMNRALPHFILVECCKIKK | failed |
| MSDGIPFAGEPADSHEAIMRATFRALREYGYAGLSIQRIADEADLSKSTFYHHFDGKEDLLLSFQEFILTEFNRIFQIESTGDPEQDIKTFVSLILDDFPDCVETPTKNAVLGSYVEMRAQAVQNPDFREKFTETDELFARQLVQIIEDGIEQGVFADVDPDTVSRFMITILDGVILQSATRNDNPVAEVRDTIDEYIEETLILNT | failed |
| MSEGMMLTTLDRLTIYAVLCFISLCALGLGETTQAQLMPVLGTAASIFGIWLEMRSEQDTTQQPHR | failed |
| NLNAIQNFGAMDILCTDKTGTLTCDKIVLEKYINADGSDDNSKRILRHAYFNSYFQTGLRNLMDKAILSHVRELNLEHLKDAYTKVDEIPFDFTRRRMSVVIEDRQGKRQIITKGAVEEILDVCSYAEFDREIHPLTDSLKIKAQKISEEMNRQGMRVLAVSQKSFIEKDCNFAIEDEKEMVLIGYLAFLDP | not failed |
| MKWARPSMHSSAQRKLIMTRILSIIGVSLCIAMLSPVLQAANLKTLDVAALPGDRIELKLAFDAPVPAPRGYTTAQPARIALDLPGVTSQLETKSRELGTGNARSVVVVQAQDRTRVIINLTTLAPYSSRVDGNNLFVVIGQGAAAAQASQPTTAMGAQRVAVPPPAPASARPFIPAGVKAIRNVDFQRGELGEGNVVIDLSNPSIAPDIQEQGGKIRVDFAKTQLPEPLRVRLDVKDFATPVQFVSASATGDKASILIEPSGAFDYSAFQTENKLTISVRPLTNEDLDRRAADKPVYTGEKLSLNFQDIDVRSVLQLIADFTNLNLVASDTVQGGITLRLQNVPWDQALDLVLKTKGLDKRKVGSVLLVAPADEIAARERQELESLKQIAELAPLRRELLQVNYAKAADIAKLFQSVTSAESKAEERGSITVDDRTNNIIAYQTQDRLDELRRIVSQLDIPVRQVMIEARIVEANVDYNKQLGVRWGGSTNTSRNGKWTTYGLDDNGDEGGNTNANLTSNIPFVDLGAADATTGIGLGFVTNNTLLDLELSAMEKTGNGEIVSQPKVVTSDKETAKILKGTEIPYQESSSSGATTVSFKEASLSLEVTPQITPDNRIIMEVKVTKDEPDYLNAVLGVPPIKKNEVNAKVLISDGETIVIGGVFSNTQSKVVDKVPFLGDVPYLGRLFRRDVVSESKSELLVFLTPRIMNNQAISVSR | failed |
| MSSKGEGSSSTAEREVKKQVASVIPVTRKLVKTMAAKAIISALTPSGCGRHSDSTGDGKELKPFKKKEGSVIPKERELVKTKAAKAIFSLFRPSCDGKQSSQPSRDGDGDHDGKRVYPTRY | failed |
| MAGATDQRRQEVLRAIVADYIASQEPVGSKALLERHNLKVSSATIRNDMAVLESEGYIVQQHASSGRIPTEKAYRTFVDSINDIKPLSVAERRAILGFLERGVDLEDVLKRSVQLLSQLTRQAAVIQLPNLNVSRVKHCE | failed |
| MTKNNILNNKITKVILFRICFIIAITTALVCGLKLNIINDGFWHIKVGEYIIKNRVIPREDIFSWYGIENKLKWISHEWLFGVIAYLVYKIKGFTSVIIFSTIVNCSTALLVYKFALIRNKNKVVSLIIMWVYIFGDFYDITYRPVLISKLILLCSFILLEKKKYLFALIVLILGVNIHGGIYPLYLMIFAYYTIPFSYKYLIFSLITVLINPYGYNLYKYTYLSMKNIDINRYINEWCITPIYDYKVALIIICITVCICTVSKIKFKDFLFCGALIILAISAKRHVDVIYLFVLPVISLYFNSFYFDFFMKFVSRIKPEKLKSIIPKLNYITCGFLIVVMIVKSSLCIKQYFFDTHFHNFEYITNDSENPIKACNFINSHQEIKNSRTFNDYNSSPYIIFRGIKTFVDSRQDLFTYNFNKTNAFVDQIKALNNYDYMIYVFKKYNIKYAILRNDMPNTRLLRNTDLIYIIYEDRDYSIFQINRNKLKSSNQRGV | failed |
| MSLDKVLEDEVVEDTGESQVFNLLNPEFVDFDTCLDPITNELPTSETTKPAGELRREKTPAKKGNSNSSSVDHRFTSASRAFTQKKLDDLKSLFVSLASKSHSNDQYVSYPVFQEYFGLSGSLGERIFDMVTQHRKDDKMTFEDLVIAKMTFEDLVIAKVHT | failed |
| MTTEPVDYVSPLVGTQSKHALSTGNTYPAIAMPWGMNFWVAQTGKMGDGWAYTYDADKIRGFKQTHQPSPWINDYGQFAIMPVTGKVVFDQDQRASWFSHKAEVAKPYYYKVYLADHDVTTEIAPTSRAAMFRFTFPESKDSYVVVDAFDNGSYVKVIPEENKIIGYTTKNSGGVPENFKNYFVLVFDKPFTFTAAVTNGNIRPGELEHHHHHH | failed |
| MSLQLRLALNQIDSTVGDIAGNAEAILRWTRHSAEQGAHLVAFPEMALTGYPVEDLALRSSFVEASRTALRELAARLAEEGFGELPVLVGYLDRSESAQPKYGQPAGAPRNAAAVLHRGRVALTFAKHHLPNYGVFDEFRYFVPGDTMPIVRLHGVDIALAICEDLWQDGGRVPAARSAGAGLLLSVNASPYERDKDDTRLELVRKRAQEAGCTTAYLAMIGGQDELVFDGDSIVVDRDGEVVARAPQFSEGCVVLDLDLPAAEAEPPTGVVDDGLRIDRLVISEEPLPAYEAELAGGYADRLDADEEVYSALVVGLRAYVAKNGFRSVLIGLSGGIDSALVAAIACDALGAQNVYGVSMPSKYSSDHSKGDAAELARRTGLNFRTVSIEPMFDAYMASLGLTGLAEENLQSRLRGTTLMAISNQEGHIVLAPGNKSELAVGYSTLYGDSVGAYGPIKDVYKTSIFRLAEWRNRAAAERGQTPPIPEASITKPPSAELRPGQVDTDSLPDYPVLDAILELYVDRDTGADAIVAAGYDRELVVKTLRMVDTAEYKRRQYPPGTKISAKGFGKDRRLPITNRWREGHHHHHH | not failed |
| QIDFQVLHDLRQKFPEVPEVVVSRCMLQNNNNLDACCAVLSQESTRYLYGEGDLNFSDDSGI | not failed |
| MMSTKNGTNQARTSRDVGSELIYLTKALKAPALRDAAARLAERARDEGWSHEEYLAACLQREVAARDSHGAEGRIRAARFPSRKSLEDFDFDHQRSVKREVIAHLGTLDFVAGKENVIFLGPPGTGKTHLATGLGIRACQAGHRVAFGTAAQWVARLAEAHQAGRLSDELTRLGRIPLIVVDEVGYIPFEPEAANLFFQFISGRYERASVIVTSNKPFGRWGEVFGDDTVAAAMIDRLVHHAEVISLKGDSYRMRGRDLGRVPAANTGE | failed |
| MAVAQADPGSDPAGGARFFCTAGRGLEPFLMREVRARLEATQVEYISGKVFFTTCSDLPSMKKLKSAERLFVLIKKQLPIAVSSLHKGKILNEMQRFVNDDPGSWLEAISLWKKLLEHDPKREKVSQRDANPLKRKAGENETIIAKKLKVEEKQEVAKDHGESQEDKLLQGSPEQGEAVTRTELQDHRLNSTTEKAADAQDQEDLTFRVSCRCTGNVRKVITGQEAGRVIGLALMRQFGWKADLRNPNIEIFMHLSDAYSVVGIPLLRMPLASRTYIQTAGLRSTIAWAMASIAEIKAGALVLDPMCGLGTILVEAAEEWPDVFYMGADMSDAQLLGACDNLKAAGLTDRIELLKSSVTDLPLPSQSTDVIISDIPFGKKFKLGKDIKSILQEMERVLRVGGAMVLLLSEDHHRHLTDCGGSSIPLTSKGHIAEPEMKTLSNPDRTGAPDTASPSQRASSVQCLGRMRPCGSLVPVESFKVSLGKTDAFICKYKKAQASGLSSAECHEPGAHTEMAAMQESPSLQDSL | failed |
| MSILMPVRNEERFLPAALASLCRQSLTAWELIVVDDGSTDDTPELLRVAAARDRRVRVFNNAGAGLVDALNYGLAHCRAELVARMDGDDISHPQRLERQAAALDADPGLGLVATRFRHFPRHSVGLGMRAYEEWQNGLLTHEEIMRDRFVESPVVHPSVMARRQALTDAGGYRKTGWAEDYDLWLRLAAGGVRFTRLPEVLFFWRERPERATRTMGEYAADAFRACKIHHLCQGFLLGVDNVTLAGAGLEGRAWQRALAREGVRVGRWLDVDPRKQGRILHGAPVTAPDDVRAGAEKILVTVGTRGARDGVRAWARRAGLREGEDFVCVTLEHHHHHH | failed |
| MSDVTVVAMVTNAYPVNEFQRSSGGTGKVRNIMLEDGTGSIRMALWDSDAETEISEGDVVKLIHGYAKESGEYMDLSTGRFGRLEHHHHHH | failed |
| PGMLYEFCLKPDGTMTFPYVSSGCLELIECSPQELQDDASLTFASTYPEDIIGLQEAIANSAKTLQNFEHEWRIITSSGQLKWVKGASRPERKPGGEITWYGYLLDVSEQQAALRERKQADQQLQQQAQLLQSIWEGVD | failed |
| MAARRFTGDELAALLPHAGDAFFLRDAEVDGWRASGGASWRSDHPHLRGHFPGEPIVPGVYLLEAAAQLAGVAIRCGAEDWTPETLGVLAGVRKSYFHRFVRPGERVDYALDVKPAPGSAMYAVSGLGKVDGDKVLTVELTIAGVRRLEHHHHHH | failed |

Source: a protein production outcome set (Wang et al. 2014)
